US20230340147A1 (published 2023)
Values joined by “and” are separate entries in the source; they are usually repeats but may differ in a detail not shown here. Identical values can stand only once. Ends that are not written are not given here. * marks the point of attachment. G0F = octasaccharide N-glycan with alpha-1,6 core fucose (Formula Ib, linkages Formula Ic), CC(=O)N[C@@H]1[C@@H](O)[C@H](O[C@@H]2O[C@H](CO)[C@@H](O[C@@H]3O[C@H](CO[C@H]4O[C@H](CO)[C@@H](O)[C@H](O)[C@@H]4O[C@@H]4O[C@H](CO)[C@@H](O)[C@H](O)[C@H]4NC(C)=O)[C@@H](O)[C@H](O[C@H]4O[C@H](CO)[C@@H](O)[C@H](O)[C@@H]4O[C@@H]4O[C@H](CO)[C@@H](O)[C@H](O)[C@H]4NC(C)=O)[C@@H]3O)[C@H](O)[C@H]2NC(C)=O)[C@@H](CO[C@@H]2O[C@@H](C)[C@@H](O)[C@@H](O)[C@@H]2O)O[C@H]1*

T1: Fucosylated PSA disaccharide glycopeptide (DP) (human, not fully specified (residue 3, C-terminus))
T1 construct: also called glycopeptide of Formula IV
T1 peptide: IRNKSVILLGRHS

T2: PSA(67-79)-G0F (human, also: Asn3 N-glycosylated with octasaccharide carrying alpha-1,6 core fucose (G0F))
T2 construct: Synthetic glycopeptide (3.9 kDa as SPR analyte), made on Sieber Amide resin; For the ELISAs a biotinylated form was used (glutamic acid derivative with a PEG3-biotin side chain at the N-terminus); also called PSA(67-79)-GOF; glycopeptide of Formula Ib
T2 peptide: IRN(G0F)KSVILLGRHS-NH2


Legend:
[1] = biological target: PSA in formalin-fixed, paraffin-embedded (FFPE) prostate tissue (human) (UniProt P07288); test: IHC on FFPE tumor tissue array (Tour of Tumor), prostate core
[2] = biological target: T1, Fucosylated PSA disaccharide …; test: IHC peptide inhibition, antibody pre-incubated with peptide
Experimental: FIG. 8. Inhibition of anti-1,6fucPSA antibody binding by fucosylated PSA disaccharide glycopeptide (DP) in IHC analysis of FFPE samples of prostate adenocarcinoma samples. From top to bottom rows, exemplary anti-1,6fucPSA antibodies, FIG. 8A: 2E9, 3B10, and 3H6 at 2.5 μg/ml, 2.5 μg/ml, and 2.5 μg/ml, respectively; FIG. 8B: 13C5, 2H9, and 2C11 at 3 μg/ml, 2.5 μg/ml, and 1 μg/ml, respectively. For FIG. 8A and FIG. 8B, antibodies were pre-incubated with, from left to right columns, PBS buffer (control) or DP at 5×10⁻⁹ M, 5×10⁻⁸ M, 5×10⁻⁷ M, 5×10⁻⁶ M, or 5×10⁻⁵ M.
To verify that anti-1,6fucPSA antibodies recognize specifically and selectively the core-fucosylated PSA epitope, staining specificity was tested by peptide inhibition analysis.

[3] = biological target: T2, PSA(67-79)-G0F; test: SPR, Biacore 8k, 37 C, antibody captured by anti-rabbit Fc, peptide as analyte, Langmuir fit
Experimental: (§1) 30 μg/ml of a Fcγ-fragment binding, polyclonal goat anti-Rabbit IgG (GARb-Fcγ, Jackson Laboratories) in 10 mM sodium acetate buffer (pH 4.5) was pre-concentrated in all 16 flow cells, and up to 10000 RU GARb-Fcγ were immobilized according to the manufacturer's instructions using EDC/NHS chemistry. Rabbit IgG antibody (150 kDa) containing rabbit B-cell primary cell culture supernatants were diluted three-fold with sample buffer and were captured for 2 min under a flow rate of 5 μl/min on 8 sample flow cells. The antibody Capture Level (CL) was quantified in response units (RU) for each antibody.
(§2) The non fucosylated peptide analyte PSA(67-79)-G2 (3.7 kDa) and the fucosylated peptide analyte PSA(67-79)-GOF (3.9 kDa) were diluted in sample buffer in concentration series of 0 nM (buffer), 11 nM, 33 nM, 100 nM, 300 nM, and 900 nM. The 100 nM analyte samples were injected twice as control. The analytes were injected at 30 μl/min for 3 min association time. After the association phase of the 900 nM analyte injection a report point (Binding Late) was set to quantify the signal response at antibody ligand saturation. The antibody antigen dissociation was monitored for 5 min. The GARb-Fcγ antibody capture system was regenerated by injection of 10 mM glycine pH 2 at 30 μl/min for 1 min, followed by two consecutive 1 min injections of 10 mM glycine pH 2.25 at 30 μl/min. Overlay plots of concentration dependent antigen binding were generated and kinetic rates were determined with the Biacore 8k evaluation software using a Langmuir fitting model with RMAX local. The antibody/antigen complex half-life was calculated in minutes according to the formula t_{1/2 diss}=ln(2)/60*kd.

[4] = biological target: T2, PSA(67-79)-G0F; test: Hit-ELISA, biotinylated peptide on streptavidin plate, supernatant of recombinant expression
Experimental: Subsequently Hit-ELISA (i.e. ELISAs testing the binding to the screening agents) was used to identify B-cells expressing antibodies having desired binding characteristics, i.e. binding the PSA(67-79)-GOF peptide and capable of discriminating from PSA(67-79)-G2 and Asn-GOF. Biotinylated screening agents PSA(67-79)-GOF, PSA(67-79)-G2 and Asn-GOF were immobilized on the surface of streptavidin-coated 96-well plates (Nunc) by incubation of 100 μl per well of 100 ng/ml solutions for 60 min at room temperature, respectively. The plates were washed and 30 μl of rabbit B-cell culture supernatant was transferred to each well and incubated for 1 h at room temperature. For the detection of antibodies bound to the screening agents, HRP-labeled F(ab′)₂ goat anti-rabbit Fcγ (Dianova) and ABTS substrate solution (Roche) were used according to manufacturer's instructions. 16 clones were identified that bound to PSA(67-79)-GOF and discriminated from the negative screening agents according to the selected cut-offs (OD>0.6 in positive screening and <0.6 in negative screening). The 16 clones were selected for subsequent molecular cloning and recombinant expression as also described in Seeber et al., PLoS One 9(2014), issue 2, e86184. For 15 out of the 16 clones the sequences could be successfully cloned and the sequences encoding VH and VL could be unambiguously determined. The Hit-ELISA using the screening agents was then repeated with the supernatant of the recombinant expression and the more stringent cut-off criteria (OD>1 for positive screening agent and OD at/below average background signal for negative screening agents) were fulfilled for all 15 previously selected clones for which unambiguous VH and VL sequences were retrieved.

[5] = biological target: T2, PSA(67-79)-G0F; test: SPR, Biacore 8k, 37 C, antibody captured by anti-rabbit Fc, 900 nM peptide injection
Experimental: as §1, §2

[6] = biological target: T2, PSA(67-79)-G0F; test: SPR, Biacore 8k, 37 C, antibody captured by anti-rabbit Fc, peptide as analyte
Experimental: as §1, §2
Molar Ratio (MR) indicating antibody-antigen binding stoichiometry was also determined and calculated as MR=(analyte Binding Late (RU)/antibody Capture Level (RU)) x (MW(antibody)/MW (analyte)).

Sequence of PSA in formalin-fixed, paraffin-embedded (FFPE) prostate tissue (human) (P07288 25-261 limits assumed): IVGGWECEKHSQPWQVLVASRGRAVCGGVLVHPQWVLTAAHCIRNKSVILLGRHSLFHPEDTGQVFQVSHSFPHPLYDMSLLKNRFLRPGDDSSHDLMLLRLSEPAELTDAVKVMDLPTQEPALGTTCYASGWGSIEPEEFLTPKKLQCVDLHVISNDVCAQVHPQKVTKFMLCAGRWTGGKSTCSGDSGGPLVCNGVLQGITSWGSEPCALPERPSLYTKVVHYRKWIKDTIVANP

Row | Molecule | IHC staining intensity [1] | peptide concentration giving complete inhibition [2] [µM] | Kd [3] [nM] | koff [3] [s⁻¹] | kon [3] [M⁻¹ s⁻¹] | t/2diss [3] [min] | OD [4] [OD] | BL (Binding Late) [5] [RU] | MR (Molar Ratio) [6]
1 | anti-PSA mouse monoclonal antibody ER-PR8 | 3 + and 3.5 + | – | – | – | – | – | – | – | –
2 | 2E9 (antibody, V domains shown, Rabbit monoclonal IgG (150 kDa); also called anti-1,6fucPSA antibody 2E9) VH: QSLEESGGDLVKPGASLTLTCTASGFSFSAGYDMCWVRQAPGKGLEWIACIYADGSGSTYYANWAKGRFTISLASSTTVTLQMTGLTAADTATYFCAREGADGPDYGYAAFSLWGPGTLVTVSS VL: DVVMTQTPASVEAAVGGTVTIKCQASQSISNYFSWYQQKPGQPPKLLIYKASTLASGVPSRFKGSGSGTEFTLTISDLECADAATYYCQSFYGSVTSDYGGFAFGGGTEVVVK | 3.5 + and 3.25 + | 5 | 0.6 | 0.00112 | 1.75e+06 | 10 | > 1 | 27 | 2
3 | 2H9 (antibody, V domains shown, Rabbit monoclonal IgG (150 kDa); also called anti-1,6fucPSA antibody 2H9) VH: QSLEESGGDLVKPGASLTLTCTASGFSFSSGYDMCWVRQAPGKGPEWIACIYADGSGSTYYASWAKGRFTISMTSSTTVTLQMTRLTAADTATYFCAREGADDPNYGYAALRLWGPGTLVTVSS VL: DIVMTQTPASVEAAVGGTVTIKCQASQSISNYLAWYQQKPGQPPKLLIYKTSTLASGVPSRFKGSGSGTEFTLTISDLECADAATYYCQSFYGSVSSDYGGFAFGGGTEVVVK | 3 + and 2.75 + | 5 | 2 | 0.00105 | 578000 | 11 | > 1 | 54 | 2
4 | 13C5 (antibody, V domains shown, Rabbit monoclonal IgG (150 kDa); also called anti-1,6fucPSA antibody 13C5) VH: QSLEESGGDLVKPGASLTLTCTASGFSFSSGYDMCWVRQAPGKGLEWIGCIYADGSGTTYYATWAKGRFTISNPSATTVTLQMTRLTAADTATYFCAREGADNPNYGYAALRLWGPGTLVTVSS VL: DIVMTQTPASVSGAVGGTITIKCQASQSISNYFSWYQQKPGQPPKLLIYKTSTLASGVPSRFKGSGSGTEFTLTISDLECADAATYYCQSFWGSGSSDYGGFAFGGGTEVVVK | 3.5 + and 3 + | 5 | 0.4 | 0.00038 | 981000 | 31 | > 1 | 29 | 2
5 | 2C11 (antibody, V domains shown, Rabbit monoclonal IgG (150 kDa); also called anti-1,6fucPSA antibody 2C11) VH: QSLEESGGGLVKPGGTLTLTCKASGFSFGPGYDMCWVRQAPGKGLEWIACIYADGSDNTYYASWARGRFTISKTSSTTVTLQMTRLTAADTATYFCAREGADNPNYGYAALRLWGPGTLVTVSS VL: DIVMTQTPASVEAPVGGTVTIKCQASESISSYLAWYQQKPGQPPKLLIYKTSTLASGVPSRFKGSGSGTEFTLTISDLECANAATYYCQSFYGSVSSDYGGFAFGGGTEVVVK | 3 + and 2.5 + | 5 | 1 | 0.00078 | 779000 | 15 | > 1 | 53 | 1
6 | 3B10 (antibody, V domains shown, Rabbit monoclonal IgG (150 kDa); also called anti-1,6fucPSA antibody 3B10) VH: QSLEESGGGLVKPGGTLTLTCKASGFSFSSGYDMCWVRQAPGKGLEWIACIYADGSDNTYYASWAKGRFTISKTSSTTVTLQMTRLTAADTATYFCAREGADNPNYGYAALRLWGPGTLVTVSS VL: DIVMTQTPASVEAPVGGTVTIKCQATQSISSYLSWYQQKPGQPPKLLIYKTSTLASGVPSRFKGSGSGTEFTLTISDLECANAATYYCQSYYGSISSDYGGFAFGGGTEVVVK | 3 + and 2.5 + | 5 | 11 | 0.0121 | 1.14e+06 | 1 | > 1 | 31 | 1
7 | 3H6 (antibody, V domains shown, Rabbit monoclonal IgG (150 kDa); also called anti-1,6fucPSA antibody 3H6) VH: QSLEESGGDLVKPGASLTLTCTASGFSFSSGYDMCWVRQAPGKGLEWIACIYADGSGSTYYASWAKGRFTISKPSSTTVTLQMTRLTAADTATYFCAREGADGPDYGYAAFSLWGPGTLVTVSS VL: DIVMTQTPASVEAAVGGTVTIKCQASQTISSYFSWYQQKPGQPPKLLIYKASSLASGVPSRFKGSGSGTQFTLTISDLECADAATYYCQSFYGSVSSDVGGFAFGGGTEVVVK | 3.25 + and 3 + | 5 | 4 | 0.00536 | 1.52e+06 | 2 | > 1 | 25 | 1
